# Data published in patent US20210371508A1 (University of Texas, published 2021).
# How the values were obtained:
# [1] = biological target: T1, recombinant human NMES1 protein (Normal Mucosa of Esophagus Specific 1) (human, UniProt Q9C002 1-83, limits assumed); experiment: BLI (Octet), antibody on protein A biosensors, recombinant NMES1 0-900 nM, 1:1 fit
# T1 construct: also called rhNMES1; recombinant NMES1 protein
# Description: (§1) Binding constants (EC50) of a panel of monoclonal antibodies were estimated by titration ELISA and data is analyzed using the 4 parameter curve fitting with GraphPad Prism program (Table 5). […] All experiments were performed with shaking at 1,000 rpm. Background wavelength shifts were measured from reference biosensors that were loaded only with antibody with antigen. ForteBio's data analysis software was used to fit the data to a 1:1 binding model to extract an association rate and dissociation rate.
# [2] = biological target: T1, recombinant human NMES1 protein (Normal …); experiment: titration ELISA, plate coated with recombinant NMES1 (1 µg/mL), anti-human IgG Fc HRP detection
# Description: as §1
# Anti-human IgG Fc HRP-conjugated antibody was diluted 1:5000 and added at a volume of 100 μl per well for incubation at 37° C. for 1 hour. The plates were washed 3 times with PBST (0.05% Tween-20) between incubation steps. TMB substrate was added 100 μl per well for color development and 2 M H2504 was added 50 μl per well to stop the reaction. The absorbance at 450 nm was read by SpectraMax microplate reader. For EC50 determination, data points were plotted by GraphPad Prism8. EC50 values were calculated using a three-parameter nonlinear model.
# [3] = biological target: T2, transferrin receptor 1 (TFRC) (human, UniProt P02786 1-760); experiment: co-IP with α-NMES1 from Ctrl 1833 cells, western blot for TFRC; strong TFRC band
# T2 construct: Endogenous protein in cell or membrane extracts used for co-IP
# [4] = biological target: T2, transferrin receptor 1 (TFRC); experiment: co-IP with α-NMES1 from NMES1-KD 1833 cells, western blot for TFRC; weaker TFRC band, number is normalised to the lower input
# T2 sequence (P02786 whole entry): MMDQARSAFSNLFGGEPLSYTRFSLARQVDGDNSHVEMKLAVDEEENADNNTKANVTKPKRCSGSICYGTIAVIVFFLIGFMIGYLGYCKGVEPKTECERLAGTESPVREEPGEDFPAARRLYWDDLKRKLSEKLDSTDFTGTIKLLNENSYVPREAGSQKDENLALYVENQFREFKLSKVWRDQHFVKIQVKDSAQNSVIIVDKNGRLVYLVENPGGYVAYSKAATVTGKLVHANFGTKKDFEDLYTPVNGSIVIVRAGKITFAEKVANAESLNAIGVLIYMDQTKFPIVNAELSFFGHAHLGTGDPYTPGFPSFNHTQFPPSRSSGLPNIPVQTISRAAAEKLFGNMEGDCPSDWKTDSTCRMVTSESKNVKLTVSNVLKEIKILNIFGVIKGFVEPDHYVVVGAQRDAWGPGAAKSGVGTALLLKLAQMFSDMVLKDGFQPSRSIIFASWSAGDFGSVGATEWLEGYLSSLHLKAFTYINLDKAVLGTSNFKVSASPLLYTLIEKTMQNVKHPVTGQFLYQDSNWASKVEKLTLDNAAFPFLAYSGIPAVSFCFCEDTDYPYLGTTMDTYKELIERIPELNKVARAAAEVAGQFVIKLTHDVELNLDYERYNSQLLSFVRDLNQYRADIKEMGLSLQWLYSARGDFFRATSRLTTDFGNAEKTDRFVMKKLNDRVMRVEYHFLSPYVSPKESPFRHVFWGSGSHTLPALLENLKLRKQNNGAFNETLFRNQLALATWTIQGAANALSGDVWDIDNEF
Binder,Kd [1] [nM],koff [1] [s⁻¹],kon [1] [M⁻¹ s⁻¹],EC50 [2] [nM],"Fold (IP/Input), TFRC [3] [fold]","Fold (IP/Input), TFRC [4] [fold]"
"NMES-7 anti-NMES1 monoclonal antibody (antibody, IgG1, V domains shown, also called NM-7; NMES1-7) VH: EVQLVQSGAEVKKPGASVKVSCKASGYTFNRDAISWVRQAPGQGLEWMGWISGYNGNTYYAHKVLGRATMTTDTSTNTAYMELRSLTSDDTAMYYCARVGLQPDTTMDHWGQGTLVTVSS VL: DIQMTQSPSSLSASVGDRVTITCRASQDIRNDLAWYQQKPGKAPKLLIYTASSLQTGVPSRFSGSGSGTDFTLSISSLQPEDFATYYCLQDYKYPLTFGGGTKLEIK",39.8,0.00595,150000,14.4,,
"NMES-3 anti-NMES1 monoclonal antibody (antibody, IgG1, V domains shown, also called NM-3; NMES1-3) VH: EVQLLQSGGGVVRPGGSLRLSCAASGFTFDDYGMSWVRQAPGKGLEWVSGINWNGGSTGYADSVKGRFTISRDNAKNSLYLQMNSLRAEDTALYYCARASMVRGVYAFDIWGQGTMVIVSS VL: DVQMTQSPSSLSASIGDRVTITCRASQSIGSYLNWYQQRPGKAPKLLIYSASSLQSGVPSRFSGSGSRSDFTLTIASLQPEDFATYYCQQSYSGPYTFGQGTKVDIK",56,0.00301,53800,40.6,,
"NMES-5 anti-NMES1 monoclonal antibody (antibody, IgG1, V domains shown, also called NM-5; NMES1-5) VH: QVQLVQSGAEVKKPGASVKVSCKASGYTFTSYGISWVRQAPGQGLEWMGWISAYNGNTNYAQKLQGRVTMTTDTSTSTAYMELRSLRSDDTAVYYCARATRGNAFDIWGQGTMVSVSS VL: QSALTQPASVSGSPGQSITISCTGTSSDVGAYNYVSWYQQHPGKAPKLMIYDVSNRPSGVSNRFSGSKSGNTASLTISGLQAEDEADYYCSSYTRSTTVVFGGGTKVTVL",27.9,0.00463,166000,0.216,,
"NMES-6 anti-NMES1 monoclonal antibody (antibody, IgG1, V domains shown, also called NM-6; NMES1-6) VH: QVQLVQSGAEVKKPGASVKVSCKASGYTFTSYGISWVRQAPGQGLEWMGWISAYNGNTNYAQKLQGRVTMTTDTSTSTAYMELRSLRSDDTAVYYCARAVGQLAFDYWGQGTLVTVSS VL: QSALNQPPSASGSPGQSVTISCTGTSSDVGGYNYVSWYQQHPGKAPKLMIYEVSKRPSGVPDRFSGSKSGNTASLTVSGLQAEDEADYYCSSYAGSNNLVFGGGTKVTVL",19.5,0.00441,227000,2.39,,
"NMES-10 anti-NMES1 monoclonal antibody (antibody, IgG1, V domains shown, also called NM-10; NMES1-10) VH: QVQLVQSGAEVKKPGASVKVSCKASGYTFTSYGISWVRQAPGQGLEWMGWISAYNGNTNYAQKLQGRVTMTTDTSTSTAYMELRSLRSDDTAVYYCARATFGNAFDIWGQGTTVTVSS VL: QSALTQPASVSGSPGQSITISCTGTSSDVGGYNYVSWYQQHPGKAPKLMIYDVSNRPSGVSNRFSGSKSGNTASLTISGLQAEDEADYYCSSYTSSSTLVVFGGGTKVTVL",89.9,0.0131,146000,306,,
"NMES1, endogenous, in human breast cancer cells (BoM-1833) (ligand, UniProt Q9C002 1-83, looked up, Endogenous protein of the cells used for co-IP and for the cell assays; also called C15orf48) MSFFQLLMKRKELIPLVVFMTVAAGGASSFAVYSLWKTDVILDRKKNPEPWETVDPTVPQKLITINQQWKPIEELQNVQRVTK",,,,,79.8,74.9
"NMES-1 anti-NMES1 monoclonal antibody (antibody, V domains shown, also called NM-1; NMES1-1) VH: QVQLVQSGGGVVQPGRSLRLSCAASGFTFSSYAMHWVRQAPGKGLEWVAVISYDGSNKYYADSVKGRFTISRDNSKNTLYLQMNSLRAEDTAVYYCARLSRFGDESLKDPDYWGQGTLVTVSS VL: DIVMTQSPLSLPVTLGQPASISCRSSQSLVHSDGNTYLNWFQQRPGQSPRRLIYKVSNRDSGVPDRFSGSGSGTDFTLKISRVEAEDVGVYYCMQGAHWPPTFGPGTKLEIK",15.5,0.00499,323000,2.98,,
"NMES-4 anti-NMES1 monoclonal antibody (antibody, IgG1, V domains shown, also called NM-4; NMES1-4) VH: EVQLVQSGGEVKKPGSSVKVSCKASGGTFSTYAISWVRQAPGQGLEWMGGIIPIFGTTNYAQKFQGRVTITADRSTSTAYMELSSLRSEDTAVYYCARVSELGDYYAMDVWGQGTTVTVSS VL: DIQMTQSPSSLSASVGDRVTITCRASQGIASALAWYQQKPGKAPKLLIYDASNLESGVPSRFSGSGSGTDFTLTISSLQPEDFATYYCQQAHSFPLTFGGGTKLEIK",17.1,0.00382,223000,4.37,,
